Measured values as given in IntAct's records for PubMed 21965663.

Biological target: dyr1a_mouse Dyrk1a (UniProt Q61214)

Calcipressin-1 (Homo sapiens), P53805-2 S112A;T192A, sequence (P53805 other isoform, or with tags, fused parts or gaps S112A;T192A): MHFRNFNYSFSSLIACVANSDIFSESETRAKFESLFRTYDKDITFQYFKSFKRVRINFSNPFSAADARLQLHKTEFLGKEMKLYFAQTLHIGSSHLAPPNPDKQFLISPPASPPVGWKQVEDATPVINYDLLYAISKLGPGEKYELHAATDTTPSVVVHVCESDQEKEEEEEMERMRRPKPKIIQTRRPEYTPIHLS
Calcipressin-1 (Homo sapiens), P53805-2 S112A, sequence (P53805 other isoform, or with tags, fused parts or gaps S112A): as the sequence (P53805 other isoform, or with tags, fused parts or gaps S112A;T192A) above
Calcipressin-1 (Homo sapiens), P53805-2 T192A, sequence (P53805 other isoform, or with tags, fused parts or gaps T192A): as the sequence (P53805 other isoform, or with tags, fused parts or gaps S112A;T192A) above

| Substance | effect of a mutation on the interaction |
| --- | --- |
| Calcipressin-1 (Homo sapiens), P53805-2 S112A | decreasing interaction |
| Calcipressin-1 (Homo sapiens), P53805-2 T192A | decreasing interaction |
| Calcipressin-1 (Homo sapiens), P53805-2 S112A;T192A | disrupting interaction |
